Laboratory results published in US9695461B2, “Method for adapting a hydrolytic enzyme to a component that stabilizes the hydrolytic enzyme” (Henkel AG & Co. KGaA, priority 2011, dated 2017).

B1: S166: protease according to SEQ ID NO: 3 used as the hydrolytic enzyme (starting enzyme) (protein, listed as Bacillus lentus)
chain: AQSVPWGISRVQAPAAHNRGLTGSGVKVAVLDTGISTHPDLNIRGGASFVPGEPSTQDGNGHGTHVAGTIAALNNSIGVLGVAPSAELYAVKVLGADGEGAISSIAQGLEWAGNNGMHVANLSLGSPSPSATLEQAVNSATSRGVLVVAASGNSGASSISYPARYANAMAVGATDQNNNRASFSQYGAGLDIVAPGVNVQSTYPGSTYASLNGTSMATPHVAGAAALVKQKNPSWSNVQIRNHLKNTATSLGSTNLYGSGLVNAEAATR
B2: S166G/Q191R: protease of SEQ ID NO: 3 with amino acid substitutions S166G and Q191R in the count according to SEQ ID NO: 1 (protein, listed as Bacillus lentus)
chain: AQSVPWGISRVQAPAAHNRGLTGSGVKVAVLDTGISTHPDLNIRGGASFVPGEPSTQDGNGHGTHVAGTIAALNNSIGVLGVAPSAELYAVKVLGADGEGAISSIAQGLEWAGNNGMHVANLSLGSPSPSATLEQAVNSATSRGVLVVAASGNSGASSIGYPARYANAMAVGATDQNNNRASFSRYGAGLDIVAPGVNVQSTYPGSTYASLNGTSMATPHVAGAAALVKQKNPSWSNVQIRNHLKNTATSLGSTNLYGSGLVNAEAATR
B3: S166V: protease of SEQ ID NO: 3 with amino acid substitution S166V in the count according to SEQ ID NO: 1 (protein, listed as Bacillus lentus)
chain: AQSVPWGISRVQAPAAHNRGLTGSGVKVAVLDTGISTHPDLNIRGGASFVPGEPSTQDGNGHGTHVAGTIAALNNSIGVLGVAPSAELYAVKVLGADGEGAISSIAQGLEWAGNNGMHVANLSLGSPSPSATLEQAVNSATSRGVLVVAASGNSGASSIVYPARYANAMAVGATDQNNNRASFSQYGAGLDIVAPGVNVQSTYPGSTYASLNGTSMATPHVAGAAALVKQKNPSWSNVQIRNHLKNTATSLGSTNLYGSGLVNAEAATR

Legend:
[1] = system: protease according to SEQ ID NO: 3; experiment: Inhibition measurements in the biochemical test (Example 2); details: 0.1 M Tris/HCl pH 8.6 with Brij35, suc-AAPF-pNA
Description: The variants S166V and S166G/Q191R as well as the starting enzyme according to SEQ ID NO: 3 were expressed in a suitable expression system, further purified by means of ion exchange chromatography and prepared for the activity determinations in 0.1 M Tris/HCl buffer pH 8.6, comprising Brij35. To the formulations were added increased amounts of the reversible inhibitor 3-HPBA or BMA (see Tables 3 and 4) and the proteolytic residual activity of the respective protease was determined from the release of the chromophore para-nitroaniline (pNA) from the substrate suc-L-Ala-L-Ala-L-Pro-L-Phe-p-nitroanilide (suc-AAPF-pNA) as described above.

[2] = system: protease according to SEQ ID NO: 3; experiment: Relative proteolytic activity with reversible inhibitor in liquid surfactant preparation (Example 1); type: biochemical; details: 50% conc. surfactant preparation, 0.92 mM AAPF, 25° C., pH 8.6, relative to same protease without inhibitor; for relative activity, 3-HPBA: 3-HPBA in amount inhibiting starting enzyme by 20-40%; for relative activity, 4-FPBA: 4-FPBA in amount inhibiting starting enzyme by 20-40%; for relative activity, Boric acid: boric acid in amount inhibiting starting enzyme by 20-40%; for relative activity, BMA: benzylmalonic acid in amount inhibiting starting enzyme by 20-40%
Excerpt: The relative activity to be determined in process step c) of the hydrolytic enzyme modified in process step b) is given by [measured activity of the hydrolytic enzyme modified in process step b) in the presence of the component that stabilizes the hydrolytic enzyme] divided by [measured activity of the hydrolytic enzyme modified in process step b) in the absence of the component that stabilizes the hydrolytic enzyme] multiplied by 100.
The relative activity of the starting enzyme to be determined in process step c) is given by [measured activity of the starting enzyme in the presence of the component that stabilizes the hydrolytic enzyme] divided by [measured activity of the starting enzyme in the absence of the component that stabilizes the hydrolytic enzyme] multiplied by 100.
The nucleic acid sequence of the hydrolytic enzyme present on a plasmid was modified individually or in combination as indicated in Tables 1 and 2 using site directed mutagenesis by means of specific, adapted primers using a Phusion Hot Start Polymerase at the positions S166, A187, F189 or Q191 in the counting according to SEQ ID NO: 1, and the resulting variants were transformed into a suitable host. Active clones were selected by means of a protease-sensitive medium and the DNA sequence was sequenced after isolation of the plasmid for identification purposes. The modified proteases were expressed in the Bacillus host and prepared for the activity determination.
The activity was determined in a liquid preparation that was constituted as follows (all data in wt %): 0.3-0.5% xanthan, 0.2-0.4% defoamer, 6-7% glycerin, 0.3-0.5% ethanol, 4-7% FAEOS (fatty alcohol ether sulfate), 24-28% non-ionic surfactants, 1-2% sodium citrate (dihydrate), 2-4% soda, 14-16% cocoanut fatty acids, 0.5% HEDP (1-hydroxyethane-(1,1-diphosphonic acid)), 0-0.4% PVP (polyvinyl pyrrolidone) 0-0.5% optical brightener, 0-0.001% % colorant, the remainder being demineralized water.
To a 50% conc. liquid preparation of the liquid surfactant preparation were added 0.92 mM AAPF. The reversible inhibitor to be tested was also comprised in the required amount to inhibit the starting enzyme by 20-40%. 20 μl of the respective protease (starting enzyme as well as modified protease variants) were added and the proteolytic activity determined from the release of the chromophore para-nitroaniline (pNA) from the substrate suc-L-Ala-L-Ala-L-Pro-L-Phe-p-nitroanilide (suc-AAPF-pNA). The protease cleaves the substrate and releases pNA. The released pNA causes the extinction at 410 nm to increase; the change in extinction as a function of time is a measure of the enzymatic activity (see Del Mar et al., 1979). The measurement was carried out at a temperature of 25° C., at pH 8.6 and a wavelength of 410 nm.
The measured activity was compared with the activity of a reference formulation of the same protease sample without inhibitor and the respective relative activities of the modified proteases and the starting enzyme were determined. […] The results are presented in the following Tables 1 and 2 (the relative activities are each given).

| Molecule | proteolytic residual activity, 3-HPBA ([1]; 3-HPBA 0.05 mM) | proteolytic residual activity, 3-HPBA ([1]; 3-HPBA 0.1 mM) | proteolytic residual activity, 3-HPBA ([1]; 3-HPBA 0.5 mM) | proteolytic residual activity, 3-HPBA ([1]; 3-HPBA 1 mM) | proteolytic residual activity, 3-HPBA ([1]; 3-HPBA 1.5 mM) | proteolytic residual activity, BMA ([1]; BMA 0.05 Gew.-%) | proteolytic residual activity, BMA ([1]; BMA 0.5 Gew.-%) | proteolytic residual activity, BMA ([1]; BMA 1.0 Gew.-%) | proteolytic residual activity, BMA ([1]; BMA 1.7 Gew.-%) | proteolytic residual activity, BMA ([1]; BMA 2.5 Gew.-%) | proteolytic residual activity, BMA ([1]; BMA 3.3 Gew.-%) | proteolytic residual activity, BMA ([1]; BMA 4.0 Gew.-%) | proteolytic residual activity, BMA ([1]; BMA 5.0 Gew.-%) | relative activity, 3-HPBA ([2]; Table 1) | relative activity, 4-FPBA ([2]; Table 1) | relative activity, Boric acid ([2]; Table 1) | relative activity, BMA ([2]; Table 2) | relative activity, Boric acid ([2]; Table 2) |
| --- | --- | --- | --- | --- | --- | --- | --- | --- | --- | --- | --- | --- | --- | --- | --- | --- | --- | --- |
| B1 | 93% | 89% | 81% | 65% | 56% | 96% | 95% | 93% | 94% | 74% | 73% | 78% | 64% | 83% | 75% | 83% | 81% | 79% |
| B2 | – | – | – | – | – | 88% | 55% | 42% | 35% | 38% | 32% | 36% | 32% | – | – | – | 35% | 57% |
| B3 | 84% | 87% | 65% | 51% | 40% | – | – | – | – | – | – | – | – | 53% | 71% | 59% | – | – |
